Source: patent CN109666072A (ZONHON BIOPHARMA INST INC, dated 2019)
Each block holds one binder with its values, some of them ahead of it.

What was measured:
[1] = target: T1, 重组人β2-微球蛋白 (recombinant human β2-microglobulin, expressed in E. coli) (human, UniProt P61769 21-119); experiment: indirect ELISA, hybridoma supernatant on coated recombinant human β2-MG (1 μg/mL), HRP goat anti-mouse IgG
T1 construct: The same in-house recombinant protein serves as immunogen, ELISA coat and Western blot sample; also called β2-MG; 人β2-MG

[2] = target: T1, 重组人β2-微球蛋白 (recombinant human …); experiment: Western blot, HRP-labelled scFv on recombinant β2-MG

- binding result [1]: binds
B1: 杂交瘤细胞株B12所表达抗体 (antibody expressed by hybridoma cell line B12) (antibody, V domains shown)
VH: DVKLVESGGGLVKPGGSLKLSCAASGFTFGSYTMSWVRQTPEKRLEWVAAISSGGSFTYYLDSVKGRFTISRDSAKTTLYLQMGSLKSEDTAMYYCSREGGPYYGSHYYALDYWGQGTSVTVSS
VL: DIQMTQSTSSLSASLGDGVTISCRASQDITNYLNWYQQRPDGAVRLLIYYTSRLHSGVPSRFSGSGSGTNYSLTISNLEQEDIATYFCQQGNTLPPTFGGGTKLEIK
notes: Mouse monoclonal antibody tested as hybridoma culture supernatant and detected with HRP goat anti-mouse IgG

- binding result [1]: binds
B2: 杂交瘤细胞株B17所表达抗体 (antibody expressed by hybridoma cell line B17) (antibody, V domains shown)
VH: not shown
VL: QIVLTQSPAIMSASPGEKVTITCSASSSVSYMHWFQQKPGTSPKLWIYSTSNLASGVPARFSGSGSGTSYSLTISRMEAEDAATYYCHQRSSYPLTFGAGTKLEIK
notes: as for B1

- binding result [2]: binds
B3: 单链抗体BM12 (anti-human β2-microglobulin scFv BM12) (scFv)
scFv: DVKLVESGGGLVKPGGSLKLSCAASGFTFGSYTMSWVRQTPEKRLEWVAAISSGGSFTYYLDSVKGRFTISRDSAKTTLYLQMGSLKSEDTAMYYCSREGGPYYGSHYYALDYWGQGTSVTVSSGGGGSGGGGSGGGGSDIQMTQSTSSLSASLGDGVTISCRASQDITNYLNWYQQRPDGAVRLLIYYTSRLHSGVPSRFSGSGSGTNYSLTISNLEQEDIATYFCQQGNTLPPTFGGGTKLEIK
notes: expressed in Pichia pastoris X-33; HRP-labelled in the Western blot; used as coating or gold-labelled antibody in the colloidal gold card; also called BM12-HRP; BM12-scFv

- binding result [2]: binds
B4: 单链抗体BM17 (anti-human β2-microglobulin scFv BM17) (scFv)
scFv: QVTLKESGPGILQPSQTLSLTCSFSGFSLSTSGMGVSWIRQPSGKGLEWLAHIYWDDDKRYNPSLKSRLTISKDTSSNQVFLKITSVDTADTATYYCARVYYGYDGGFFDYWGQGTTLTVSSGGGGSGGGGSGGGGSQIVLTQSPAIMSASPGEKVTITCSASSSVSYMHWFQQKPGTSPKLWIYSTSNLASGVPARFSGSGSGTSYSLTISRMEAEDAATYYCHQRSSYPLTFGAGTKLEIK
notes: expressed in Pichia pastoris X-33; HRP-labelled in the Western blot; used as gold-labelled or coating antibody in the colloidal gold card; also called BM17-HRP; BM17-scFv
